Positions count from the first letter of the chain named.
B1: mIMT001 (IMT001) (protein)
chain 1: QIQLVQSGPELKKPGETVKISCKASGYTFTNYGMNWVKQAPGKGLKWMGWINTNTGEPTYVEEFKGRFAFSLETSASTAYLQINNLKNEDTATYFCAPYDNFFAYWGQGTLVTVSA
chain 2: DIVITQDELSNPVTSGESVSISCRSSKSLLYKDGKTYLNWFLQRPGQSPQLLIYLMSTHASGVSDRFSGSGSGTDFTLEISRVKAEDVGVYYCQQLVDYPLTFGAGTKLELK
B2: 13A12.2E5 (protein)
chain 1: QIQLVQSGPELKKPGETVKISCKTSGYKFKTYVMSWVKQAPGKALKWMGWINTYSGVPTYADDFKGRFAFSLETSASTAYLEIINLKNEDTATYFCARDGNYGDPMDYWGQGTSVTVSS
chain 2: DVVMTQTPLTLSVAIGQPASISCKSSQSLLYTNGKTYLNWLLQRPGQSPKRLIYLLSKLDSGVPDRFSASGSGTDFTLKISRVEAEDLGVYYCLQSTHFPLTFGAGTKLEMK
B3: 3B11.2G2 (protein)
chain 1: B2 chain 1
chain 2: not shown
B4: 2D10.2B2 (protein)
chain 1: QVQLQQSGPELVKPGASVKISCKASGYTFTDYYINWVKQRPGQGLEWIGWIYPGSNDTKYNEKFKGKATLTVDTSSSTAYMQLGSLTSEDSAVYFCANYFGCSGWFFDVWGTGTTVTVSS
chain 2: DIVMTQAAFSNPVTLGTSASISCRSSKSLLHSDGITYLYWYLQRPGQSPQLLIYRMSNLASGVPDRFSGSGSGTDFTLRISRVEAEDVGVYYCAQMIEFPLTFGAGTILELK
B5: 4A11.2B5 (protein)
chain 1: QVQLQQSGPELVKPGASVKISCKASGYSFTNYYIHWVKQRPGQGLEWIGWIYPGSGNTNYNEKFKGKATLTADTSSSTTNMQLSSLTSEDSAVYYCSTAPGGFDVWGSGTTVTVSS
chain 2: B4 chain 2 with I97L, I108K
B6: 6H6.2D6 (protein)
chain 1: QIQLVQSGPELKKPGETVKISCKASGYTFTTYGMSWVKQAPGKGLKWMAWINTYSGVPTYADDFKGRFAFSLETSASTAYLQINNLTNEDTATYFCARGPYAMDYWGQGTSVTVSS
chain 2: DIQMTQTTSSLSASLGDRVTISCSASQGISNYLNWYQQKPDGTVKLLIYYTSSLHSGVPSRFSGSGSGTDYSLTISNLEPEDIATYYCQQYSELPYTFGSGTKLEIK
B7: 19B5.2E6 (protein)
chain 1: B6 chain 1 with G33A, A49G, F64L, T87K
chain 2: B6 chain 2 with S30N, T51A, E93Q, L94V
B8: 20H5.A3 (protein)
chain 1: B6 chain 1 with T17S, T28A, K38Q, A49G, I51V, Y60C, T87R
chain 2: B6 chain 2 with S22N, G28D, H55L, Y87F, E93K, K103H
B9: 23H9.2E4 (protein)
chain 1: B6 chain 1 with G33A, A49G, F64L, T87K
chain 2: B6 chain 2 with S30N, T51A, E93Q, L94V
B10: 15G7.2A7 (protein)
chain 1: EVQLQQSGPELVKPGASVKISCKASGYTFTDYYMNWVKQSHGKSLEWIGDINPNNGGTNYNQKFKGKATLTVDKSSSTAYMELRSLTSEDSAVYYCTSGYGFPYWGQGTLVTVSA
chain 2: DIQMNQSPSSLSASLGDTISITCRASQNINIWLSWYQQKPGNIPQLLIYKASNLHTGVPSRFSGSGSGTDFTLTISSLQPEDIATYYCLQGQSYPLTFGAGTKLVMK
B11: 20D11.2C6 (protein)
chain 1: B10 chain 1 with Y32F, M34I, N54K, T58I, Q62P, G66I, A79S, E82D, S85G
chain 2: B10 chain 2 with S20T, N30Y, Q45K, S77T, Y87F, V105E
B12: 846.2H3 (protein)
chain 1: QIQLVQSGPELKKPGETVKISCKASGYTFTNYGMNWVKQAPGKGLKWMGWINTYTGEPSYADDFKGRFAFSLETSASTAYLQINNLKNEDMATYFCARWGGYDGDYYAMDYWGQGTSVTVSS
chain 2: NIMMTQSPSSLAVSAGEKVTMSCKSSQSVLYSSNQKNYLAWYQQKPGQSPKLLIYWASTRESGVPDRFTGSGSGTDFTLTISSVQPEDLAVYYCHQYLSSLTFGAGTKLELK
B13: 846.1F5 (protein)
chain 1: B12 chain 1
chain 2: B12 chain 2
B14: 13H12.2F8 (protein)
chain 1: QIQLVQSGPELKKPGETVKISCKASGYTFTTYGMSWVKQAPGKGLKWMGWINTYSGVPTYADDFKGRFAFSLETSASTAYLQINNLKNEDTATYFCAVPYEYDGAYWGQGTLVTVSA
chain 2: not shown
B15: 14H10.2C9 (protein)
chain 1: B14 chain 1 with S35G, G44D, N84S, A97S, V98T
chain 2: not shown
B16: 19D9.2E5 (protein)
chain 1: B14 chain 1 with S35G, A76T, T91M, V98T
chain 2: not shown
B17: 846T.1H2 (protein)
chain 1: QIQLVQSGPELKKPGETVKISCKASGYTFTNYGMNWVKQAPGKGLKWMGWINTNTGEPTYAEEFKGRFAFSLETSASTAYLQINNLKNEDTATYFCATGGGNWDFDYWGQGTTLTVSS
chain 2: not shown
B18: 4G2.2G6 (protein)
chain 1: QIQLVQSGPDLKKPGETVKISCKASGYTFTTYVMSWVKQAPGKDLKWMGWINTHSGVPTYADDFKGRFDFSLETSANTAFLQINNLKNEDTATYFCTRDGNDGDAMDNWGQGTSVTVSS
chain 2: not shown

Biological target: Human Galectin-3 protein (Acro Biosystems, GA3-H5129)
Experiment: ELISA, hGal3 coated, competitor hTIM3 (FIG. 24)

Row | Protein | GAL3-TIM3 assembly, % of level without antibody
1 | B1 | to 5-20% of levels observed in the absence of a GAL3-targeted antibody
2 | B2 | to 50-75% of levels observed in the absence of a GAL3-targeted antibody
3 | B3 | to 50-75% of levels observed in the absence of a GAL3-targeted antibody
4 | B4 | to 5-20% of levels observed in the absence of a GAL3-targeted antibody
5 | B5 | to 50-75% of levels observed in the absence of a GAL3-targeted antibody
6 | B6 | to 5-20% of levels observed in the absence of a GAL3-targeted antibody
7 | B7 | to 20-50% of levels observed in the absence of a GAL3-targted antibody
8 | B8 | to 5-20% of levels observed in the absence of a GAL3-targeted antibody
9 | B9 | to 20-50% of levels observed in the absence of a GAL3-targted antibody
10 | B10 | to 50-75% of levels observed in the absence of a GAL3-targeted antibody
11 | B11 | to 50-75% of levels observed in the absence of a GAL3-targeted antibody
12 | B12 | to less than 5% of levels observed in the absence of a GAL3-targeted antibody
13 | B13 | to 5-20% of levels observed in the absence of a GAL3-targeted antibody
14 | B14 | to 20-50% of levels observed in the absence of a GAL3-targted antibody
15 | B15 | to 50-75% of levels observed in the absence of a GAL3-targeted antibody
16 | B16 | to 50-75% of levels observed in the absence of a GAL3-targeted antibody
17 | B17 | to 5-20% of levels observed in the absence of a GAL3-targeted antibody
18 | B18 | to 50-75% of levels observed in the absence of a GAL3-targeted antibody
